The chains are these.
B1: Human wild-type adenosine deaminase (ADA) [human] / A2AR-Nluc-spacer (human adenosine receptor fused to NanoLuc on the N-terminal end, with spacer) [human] (parent)
chain 1: MAQTPAFDKPKVELHVHLDGSIKPETILYYGRRRGIALPANTAEGLLNVIGMDKPLTLPDFLAKFDYYMPAIAGCREAIKRIAYEFVEMKAKEGVVYVEVRYSPHLLANSKVEPIPWNQAEGDLTPDEVVALVGQGLQEGERDFGVKARSILCCMRHQPNWSPKVVELCKKYQQQTVVAIDLAGDETIPGSSLLPGHVQAYQEAVKSGIHRTVHAGEVGSAEVVKEAVDILKTERLGHGYHTLEDQALYNRLRQENMHFEICPWSSYLTGAWKPDTEHAVIRLKNDQANYSLNTDDPLIFKSTLDTDYQMTKRDMGFTEEEFKRLNINAAKSSFLPEDEKRELLDLLYKAYGMPPSASAGQNL
chain 2: MPIMGSSVYITVELAIAVLAILGNVLVCWAVWLNSNLQNVTNYFVVSLAAADIAVGVLAIPFAITISTGFCAACHGCLFIACFVLVLTQSSIFSLLAIAIDRYIAIRIPLRYNGLVTGTRAKGIIAICWVLSFAIGLTPMLGWNNCGQPKEGKNHSQGCGEGQVACLFEDVVPMNYMVYFNFFACVLVPLLLMLGVYLRIFLAARRQLKQMESQPLPGERARSTLQKEVHAAKSLAIIVGLFALCWLPLHIINCFTFFCPDCSHAPLWLMYLAIVLSHTNSVVNPFIYAYRIREFRQTFRKIIRSHVLRQQEPFKAAGTSARVLAAHGSDGEQVSLRLNGHPPGVWANGSAPHPERRPNGYALGLVSGGSAQESQGNTGLPDVELLSHELKGVCPEPPGLDDPLAQDGAGVS

Variants of B1 are the subject of this test. Put plainly: NanoBRET between mixed cells (A2AR-Nluc-spacer cells + CD26-YFP cells bridged by ADA). The conditions noted are these: ADA at 1 μg/ml, 10 min incubation in HBSS without shaking, HEK-293T cells, untreated (0) control est. 4.6 mBU, parent: 35, read off a plot.
In the case of chain 1 MAQTPAFDKPKVELHVHLDGSIKPETILYYGRRRGIALPANTAEGLLNVIGMDKPLTAPDFLAKFDYYMPAIAGCREAIKRIAYEFVEMKAKEGVVYVEVRYSPHLLANSKVEPIPWNQAEGDLTPDEVVALVGQGLQEGERDFGVKARSILCCMRHQPNWSPKVVELCKKYQQQTVVAIDLAGDETIPGSSLLPGHVQAYQEAVKSGIHRTVHAGEVGSAEVVKEAVDILKTERLGHGYHTLEDQALYNRLRQENMHFEICPWSSYLTGAWKPDTEHAVIRLKNDQANYSLNTDDPLIFKSTLDTDYQMTKRDMGFTEEEFKRLNINAAKSSFLPEDEKRELLDLLYKAYGMPPSASAGQNL [chain 1 L58A], the response turned out to be 7.3 mBU.
In the case of chain 1 MAQTPAFDKPKVELHVHLDGSIKPETILYYGRRRGIALPANTAEGLLNVIGMDKPLTLPDFAAKFDYYMPAIAGCREAIKRIAYEFVEMKAKEGVVYVEVRYSPHLLANSKVEPIPWNQAEGDLTPDEVVALVGQGLQEGERDFGVKARSILCCMRHQPNWSPKVVELCKKYQQQTVVAIDLAGDETIPGSSLLPGHVQAYQEAVKSGIHRTVHAGEVGSAEVVKEAVDILKTERLGHGYHTLEDQALYNRLRQENMHFEICPWSSYLTGAWKPDTEHAVIRLKNDQANYSLNTDDPLIFKSTLDTDYQMTKRDMGFTEEEFKRLNINAAKSSFLPEDEKRELLDLLYKAYGMPPSASAGQNL [chain 1 L62A], the response was 6.7 mBU.

These data come from publication PMC5818423.
